From the supplement of paper PMC9170038

Tested on: MS2 coat protein
Assay: apparent KD of MS2 coat protein; designed switch direction (-1 OFF switch, 1 ON switch): 1; higher = weaker reporter binding
Summary of the method: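 Stalled E. coli RNA polymerase transcribed designed RNA switches on Illumina chips, which were then titrated with SNAP-549-labelled MS2 coat protein, doubling from 0.7 or 1.5 nM to 3 µM. Steps lasted from 0.8–1.5 h at the lowest concentration to 10–20 min at the highest. The apparent KD is each design's median over clusters of curve-fitted normalised fluorescence.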

[1] = input ligand: microRNA oligo, concentration not stated
[2] = Eterna round: R95, input ligand: FMN 200 uM
[3] = Eterna round: R95, input ligand: microRNA oligo, concentration not stated
[4] = Eterna round: R95, input ligand: none

Row | Sequence | apparent KD of MS2 coat protein (input ligand: FMN 200 uM) | apparent KD of MS2 coat protein [1] | apparent KD of MS2 coat protein (input ligand: none) | apparent KD of MS2 coat protein [2] | apparent KD of MS2 coat protein [3] | apparent KD of MS2 coat protein [4]
1 | UUAAUAAUGUUAGGAUAUACAUGAGGAAUCCUCGUAGAAGGAACAUGACAUGAGGAUCACCCAUGUAGCGCUCCGUAGAGCGCA [Mat - Same State NG 1 - JL mod - D45] (Eterna round: R96, puzzle: Same State NG 1) | 1600 nM | 53.2 nM | 164 nM | – | – | –
2 | UUAAUUAAUUAAUUAUACAUGAGGAUCACCCAUGUAAGUGAUCAGGAUAUCAGCUCGAUUAGAGCUGAGAAGGGAUACAUGAAU [SSNG3/12-A2] (Eterna round: R96, puzzle: Same State NG 3) | 94.4 nM | 88.3 nM | 139 nM | – | – | –
3 | UUACUCAUGUAAGGAUAUGCAGCCGAAACGGCUGCAGAAGGUACUAUAAUACAUGAGGAUCACCCAUGUAAAAUAUAUAAAGUU [Mat - Same State NG 1 - JL mod - D96] (Eterna round: R96, puzzle: Same State NG 1) | 33.9 nM | 33.6 nM | 28.2 nM | – | – | –
4 | UUACUCAUGUAAGGAUAUGCAGCCGAAACGGCUGCAGAAGGUACUAUAAUACAUGAGGAUCACCCAUGUCAAAAUAAUUAAAAC [Mat - Same State NG 1 - JL mod - D72] (Eterna round: R96, puzzle: Same State NG 1) | 34.8 nM | 26 nM | 26.9 nM | – | – | –
5 | UUAUAACAUGAGGAUCACCCAUGUCAUCUAAGUCGAGGAUAUGGGCAAAUAUAAUAAGAACCAGAAGGCGAAUAUU [Mat - Same State 1 - Mod of UCT - D33] (puzzle: Same State 1) | – | – | – | 141 nM | 14.2 nM | 49.9 nM
6 | UUCCCAUCGGGAGGAUAUGGUUCCUUAUUGGUUCUAGAAGGUCCAACAUGAGGAUCACCCAUGUGGGAGUGGUCUAAUGACCUC [SS NG10LRO05] (Eterna round: R96, puzzle: Same State NG 1) | 889 nM | 256 nM | 702 nM | – | – | –
7 | UUCCUACAUGAGGAUCACCCAUGUGACGCCUCGAUAGGAUAUGCGUGUGCCUUGGCGCAUGCAGAAGGAUUGUAGC [JL Aveso mod 8] (puzzle: Same State 1) | – | – | – | 224 nM | 27.6 nM | 21.4 nM
8 | UUCUCAUUUACAUGAGGAUCACCCAUGUUUUUUUGUCAGAAAUAGGAUAUAGGUCUCUCGUUUUACUAGAAGGAUUUCUUUAUU [JR_SSNG3_Sub088] (Eterna round: R96, puzzle: Same State NG 3) | 146 nM | 134 nM | 145 nM | – | – | –
9 | UUGAAGAAUUAAGGAUAUCGAGUCAAGAUGUUAAACAUGAGGAUCACCCAUGUGGGUUGCGGUAUCGAGAAGGUAAAUAACAAG [Mat - Same State NG 2 - JL mod - D53] (Eterna round: R96, puzzle: Same State NG 2) | 23.3 nM | 23.6 nM | 38.2 nM | – | – | –
10 | UUGAAGAAUUAAGGAUAUUGAAUACAUAUGUUUAACAUGAGGAUCACCCAUGUGGGUUGCGGUAUCGAGAAGGUAAAUUAAUAG [Mat - Same State NG 2 - JL mod - D9] (Eterna round: R96, puzzle: Same State NG 2) | 142 nM | 98.4 nM | 118 nM | – | – | –
11 | UUGAAGAAUUAAGGAUAUUGAAUACAUAUGUUUAACAUGAGGAUCACCCAUGUGGGUUGCGGUGUCGAGAAGGUAAAAUAAUAG [Mat - same State NG 2 - JL mod - D95] (Eterna round: R96, puzzle: Same State NG 2) | 194 nM | 124 nM | 329 nM | – | – | –
12 | UUGAAGAAUUAAGGAUAUUGAGUACAUAUGUUUAACAUGAGGAUCACCCAUGUGGGUUGCGGUAUCGAGAAGGUAAAAUACUAG [Mat - same State NG 2 - JL mod - D73] (Eterna round: R96, puzzle: Same State NG 2) | 156 nM | 126 nM | 87.9 nM | – | – | –
13 | UUGAAGAAUUAAGGAUAUUGAUUACAUAUGUUAAACAUGAGGAUCACCCAUGUGGGUUGCGGUAUCGAGAAGGUAAAUUAAUAG [Mat - same State NG 2 - JL mod - D77] (Eterna round: R96, puzzle: Same State NG 2) | – | 89.6 nM | – | – | – | –
14 | UUGAAGAAUUAAGGAUAUUGAUUACAUAUGUUAAACAUGAGGAUCACCCAUGUGGGUUGCGGUAUCGAGAAGGUAAAUUACUAG [Mat - same State NG 2 - JL mod - D76] (Eterna round: R96, puzzle: Same State NG 2) | 63.3 nM | 74.1 nM | 87.3 nM | – | – | –
15 | UUGAGAUGUACAGGAUAUGGUGAGGAUCACCCACUAGAAGGGUGCACAUGUGAAUCGGACAUGAGGAUCACCCAUGUUGGGCGU (Eterna round: R96, puzzle: Same State NG 1) | 108 nM | 224 nM | 209 nM | – | – | –
16 | UUGAUUAACGUAGGAUAUCGACCUACAUGAGGAUCACCCAUGUCUUUGAAUAGAUUUUUUUGUUACGAGAAGGACGUUAUGUAU [JR_SSNG2_Sub066] (Eterna round: R96, puzzle: Same State NG 2) | 40.7 nM | 49.6 nM | 89.4 nM | – | – | –
17 | UUGCAGUCAGGUGAGGAUAUCAUGAAUUUAACAUGAGGAUCACCCAUGUGCUGCCUUGCAGCAUAUGAGAAGGCACCUGGCUGCU [JL-ss2-3.02 Brourd Mod] (puzzle: Same State 2) | – | – | – | 106 nM | 923 nM | 859 nM
18 | UUGCCGCGGGUAGGAUAUGGUCACACUUCUAAAACAUGAGGAUCACCCAUGUCCGACACAUAAAGCCAGAAGGACCCGCGGCUC [Erisriin] (Eterna round: R96, puzzle: Same State NG 2) | 18.2 nM | 47.4 nM | 77.3 nM | – | – | –
19 | UUGCGCUGUCGAGAGGAUAUGCGGUGAUGGACAUGAGGAUCACCCAUGUUAGCGAUAGCAUUACGGUAGAAGGCUCUACAGCUGC [salish99_ss2_r3_094] (puzzle: Same State 2) | – | – | – | 13 nM | 21.5 nM | 21.9 nM
20 | UUGCGGGAUUAAGGAUAUUGAGUACAUAUGUUUAACAUGAGGAUCACCCAUGUGGGUUGCGGUAUCGAGAAGGUAACUUACUAC [salish99_SSNG2_r04_804] (Eterna round: R96, puzzle: Same State NG 2) | 92.9 nM | 79.3 nM | 96.3 nM | – | – | –
21 | UUGCGGGCUUGAGGAUAUUGAGUACAUAUGUUUAACAUGAGGAUCACCCAUGUGGGUUGCGGUAUCGAGAAGGUAACUUCCUCC [salish99_SSNG2_r04_809] (Eterna round: R96, puzzle: Same State NG 2) | 169 nM | 124 nM | 163 nM | – | – | –
22 | UUGCUCGUGUGAGGAUAUGCAGCCGUUUCGGCUGCAGAAGGUACUAUAAUACAUGAGGAUCACCCAUGUCUCUAUUAUUUAGUG [salish99_SSNG1_r04_926] (Eterna round: R96, puzzle: Same State NG 1) | 19.5 nM | 19.2 nM | 28.7 nM | – | – | –
23 | UUGUUUCGUCAUUAACAUGAGGAUCACCCAUGUAUCGACUCAAAGGAUAUAUAUGCUUGUUUGCAAUAGAAGGUUGAUUGUUGU [JR_SSNG3_Sub092] (Eterna round: R96, puzzle: Same State NG 3) | – | 28.1 nM | – | – | – | –
24 | UUUAAACAUGAGGAUCACCCAUGUCAACAAAGUCGAGGAUAUGGGCAAAUAAAAUAAGAACCAGAAGGCGAAUAAU [salish99_ss1_r3_068] (puzzle: Same State 1) | – | – | – | 49.2 nM | 585 nM | 334 nM
25 | UUUACUUUCAUAGGAUAUCAUGCGAAAAUUGCGUGAGAAGGGUGCACACUGUCUUUCUAGGAGUACAUGAGGAUCACCCAUGUG [SameState NG1 #66] (Eterna round: R96, puzzle: Same State NG 1) | 52.4 nM | 48.3 nM | 50.9 nM | – | – | –
26 | UUUAGCGUUACAGGAUAUGGUGAGGAUUACCCACUAGAAGGGUAAACAUGUGCGUCGUACAUGAGGAUCACCCAUGUAGGGCGU (Eterna round: R96, puzzle: Same State NG 1) | 20.6 nM | 15.5 nM | 20.6 nM | – | – | –
27 | UUUAGUUGCGCGCAGGAUAUGUAUUAAUAUACAUGAGGAUCACCCAUGUGAGACCAAAUAGGUCUGCAGAAGGGCGAAUCGCGAC [Laonerce - 28] (puzzle: Same State 2) | – | – | – | 45.4 nM | 139 nM | 199 nM
28 | UUUAGUUGCGGGCAGGAUAUGUAUUAAAAUACAUGAGGAUCACCCAUGUGAGGUCAUAACGACCUACAGAAGGGCCAAUCGCGAC [Laonerce - 15] (puzzle: Same State 2) | – | – | – | 17.2 nM | 64.4 nM | 86.1 nM
29 | UUUAGUUGCGGGCAGGAUAUGUAUUAAUAUACAUGAGGAUCACCCAUGUGAGAUCGAAUAGAUCUACAGAAGGGCCAAUCGCGAC [Laonerce - 25] (puzzle: Same State 2) | – | – | – | 19.8 nM | 133 nM | 188 nM
30 | UUUAUAGGCGCAGGAUAUGGUGAGGAUCACCCACUAGAAGGGUGCACAUGAGAAUCGGACAUGAGGAUCACCCAUGUCCGGCGC (Eterna round: R96, puzzle: Same State NG 1) | 915 nM | 201 nM | 526 nM | – | – | –
